{"source": "patent US6512004B2", "about": "“Promoters of neural regeneration” (The Regents of the University of California, priority 1998, dated 2003)", "molecules": {"B1": {"name": "purified myelin-associated glycoprotein (MAG): Native MAG purified from myelin after extraction in 1% octylglucoside and DEAE-Sepharose separation (protein, UniProt P07722 20-626, looked up)", "Myelin-associated glycoprotein": "GHWGAWMPSSISAFEGTCVSIPCRFDFPDELRPAVVHGVWYFNSPYPKNYPPVVFKSRTQVVHESFQGRSRLLGDLGLRNCTLLLSTLSPELGGKYYFRGDLGGYNQYTFSEHSVLDIINTPNIVVPPEVVAGTEVEVSCMVPDNCPELRPELSWLGHEGLGEPTVLGRLREDEGTWVQVSLLHFVPTREANGHRLGCQAAFPNTTLQFEGYASLDVKYPPVIVEMNSSVEAIEGSHVSLLCGADSNPPPLLTWMRDGMVLREAVAESLYLDLEEVTPAEDGIYACLAENAYGQDNRTVELSVMYAPWKPTVNGTVVAVEGETVSILCSTQSNPDPILTIFKEKQILATVIYESQLQLELPAVTPEDDGEYWCVAENQYGQRATAFNLSVEFAPIILLESHCAAARDTVQCLCVVKSNPEPSVAFELPSRNVTVNETEREFVYSERSGLLLTSILTLRGQAQAPPRVICTSRNLYGTQSLELPFQGAHRLMWAKIGPVGAVVAFAILIAIVCYITQTRRKKNVTESPSFSAGDNPHVLYSPEFRISGAPDKYESEKRLGSERRLLGLRGEPPELDLSYSHSDLGKRPTKDSYTLTEELAEYAEIRVK"}}, "tested_on": "growth cones of Xenopus spinal neurons", "assay": "Growth cone turning in gradients of purified MAG or purified myelin", "format": "cell-based", "conditions": "purified MAG 150 μg/ml, purified myelin 25 μg/ml in the pipette; with or without Sp-cAMPS, 8-br-cGMP, low Ca2+", "method": "FIG. 5. Growth cone turning induced by purified myelin. A gradient of purified myelin (25 μg/ml in the pipette) was applied in normal culture medium (open circles), in medium containing Sp-cAMPS (20 μM, solid circles), or 8-br-cGMP (100 μM, solid squares). Isolated symbols along the abscissa are median values for corresponding data shown above.\nFIGS. 6A, 6B. Effects of purified myelin-associated glycoprotein (MAG) on growth cones of Xenopus spinal neurons. A gradient of purified MAG (150 μg/ml in the pipette) was applied in normal culture medium (open circles), in medium containing Sp-cAMPS (20 μM, solid circles), or in medium containing 8-br-cGMP (100 μM, solid squares). (A) Shown are distributions of turning angles under different conditions. Isolated symbols along the abscissa are median values for corresponding data shown above. (B) Shown are distributions of net neurite extension in the gradient under different conditions.\nFIGS. 7A, 7B. Effects of reducing external Ca^2+. (A) Purified MAG-induced turning depends on [Ca^2+]o. Shown are distributions of turning angles in normal medium in the absence (solid circles) or presence of Sp-cAMPS (20 μM, solid squares), and in medium containing 1 μM [Ca^2+]o in the absence (open circles) or presence of Sp-cAMPS (20 μM, open squares), respectively. […]\n8. […] Only growth cones with a net extension >5 μm over the one-hour period were scored."}
{"molecule": "B1", "values": [{"measurement": "growth cone turning induced by the purified factor and its modulation", "value": "results similar to those with rMAG"}]}
